The target of assay [1] is T1, anti-CD28 scFv (VH-linker 1-VL) (biotinylated (site not stated)).
T1 construct: Captured as biotinylated scFv on neutravidin coated plates in the phage ELISA
The experiment in a line: phage ELISA; biotinylated scFv on neutravidin plate; anti-M13-HRP. (ELISA stands for enzyme-linked immunosorbent assay.)

In assay [2] the target is T1, anti-CD28 scFv (VH-linker 1-VL). The assay is described as follows: phage ELISA; scFv wells pre-incubated with soluble CD28 (competitor).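 Also: crude clonal phage supernatants added to wells pretreated with soluble CD28 in blocking buffer, bound phage read via HRP-linked anti-M13 antibody, reference wells got blocking buffer only.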
Procedure: (§1) Clonal phage were harvested as crude supernatants and screened via standard enzyme linked immunosorbent assays (ELISAs). […] Prior to the addition of clonal phage, wells were incubated with blocking buffer and CD28 soluble protein or blocking buffer alone. Without washing or aspirating, clonal phage supernatants were then added to the wells and incubated for a short time. Wells were then washed followed by detection of bound phage using a horse radish peroxidase conjugated anti-M13 antibody.
For assay [3], the target named is Anti-CD28 scFv (VH-linker 1-VL). The assay is described as follows: phage ELISA: biotinylated anti-CD28 scFv on neutravidin plate, clonal phage supernatant, anti-M13-HRP; wells pre-incubated with soluble CD28 (competitor).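 Also: before phage addition, wells were preincubated either with soluble CD28 protein in blocking buffer or with blocking buffer only.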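 Also: wells pretreated with soluble CD28 protein in blocking buffer before phage addition, no wash in between, reference wells got blocking buffer only, bound phage detected after washing.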
Procedure: as §1
For assay [4] the target is unchanged. The experiment in a line: phage ELISA: biotinylated anti-CD28 scFv on neutravidin plate, clonal phage supernatant, anti-M13-HRP.
Procedure: as §1

T1 sequence (scFv, as listed by the source): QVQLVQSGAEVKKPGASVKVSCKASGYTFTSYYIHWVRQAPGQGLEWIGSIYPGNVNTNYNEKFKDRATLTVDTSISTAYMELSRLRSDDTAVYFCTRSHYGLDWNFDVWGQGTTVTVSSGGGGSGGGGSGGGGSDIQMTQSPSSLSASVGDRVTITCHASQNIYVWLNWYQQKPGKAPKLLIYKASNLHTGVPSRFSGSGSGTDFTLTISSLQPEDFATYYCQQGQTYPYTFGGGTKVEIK
Chain of Anti-CD28 scFv (VH-linker 1-VL) (scFv, as listed by the source): as above

B1: Phage-320 clonal phage peptide (peptide)
peptide: MDWCPTYLWNECFN
notes: on phage (pIII fusion)
B1: in assay [1], the “CD28 scFv signal” value came to 2.24. Also, the “CD28 scFv signal in presence of CD28” value in assay [2] is 0.606.

B2: Phage-276 clonal phage peptide (peptide)
peptide: IDWCPKIHWDLCYF
notes: on phage (pIII fusion)
As to B2, the “CD28 scFv signal” value in assay [1] is 0.295. Moreover, the “CD28 scFv signal in presence of CD28” value in assay [2] was determined as 0.082.

B3: Phage-271 clonal phage peptide (peptide)
peptide: MDWCPTSFWNRCFH
notes: on phage (pIII fusion)
Turning to B3, in assay [1], the “CD28 scFv signal” value was found to be 0.087. In assay [2], the “CD28 scFv signal in presence of CD28” value worked out at 0.092.

B4: Phage-275 clonal phage peptide (peptide)
peptide: MDWCPRDHWVDCYS
notes: on phage (pIII fusion)
For B4, the “CD28 scFv signal” value in assay [1] turned out to be 0.671. In addition, in assay [2], the “CD28 scFv signal in presence of CD28” value amounted to 0.092.

B5: Phage-310 clonal phage peptide (peptide)
peptide: MDWCPRDLWDECFN
notes: on phage (pIII fusion)
As to B5, in assay [1], the “CD28 scFv signal” value came to 2.37. The “CD28 scFv signal in presence of CD28” value in assay [2] was 0.248.

B6: Phage-304 clonal phage peptide (peptide)
peptide: MDWCPKFLWDECFA
notes: on phage (pIII fusion)
On to B6, for which the “CD28 scFv signal” value in assay [1] is 2.41. For the same molecule, the “CD28 scFv signal in presence of CD28” value in assay [2] stood at 0.376.

B7: Phage-424 (peptide)
peptide: ITQCPSTMWNRCSV
notes: Clonal phage from the Peptide-9 library
B7: the “Phage binding ELISA CD28 scFv signal in presence of CD28” value in assay [3] came out at 0.108. The “Phage binding ELISA CD28 scFv signal” value in assay [4] was determined as 0.098.

B8: Phage-425 (peptide)
peptide: MDLCPTAMWNRCFY
notes: as for B7
Consider B8, for which the “Phage binding ELISA CD28 scFv signal in presence of CD28” value in assay [3] was 0.084. Besides, the “Phage binding ELISA CD28 scFv signal” value in assay [4] was 0.097.

B9: Phage-288 clonal phage peptide (peptide)
peptide: MDWCPIALWDFCFA
notes: on phage (pIII fusion)
Consider B9, for which the “CD28 scFv signal” value in assay [1] came to 2.52. In addition, the “CD28 scFv signal in presence of CD28” value in assay [2] came out at 0.492.

B10: Phage-290 clonal phage peptide (peptide)
peptide: MDWCPRDLWSVCFS
notes: on phage (pIII fusion)
Regarding B10, the “CD28 scFv signal” value in assay [1] was 2.5. In addition, the “CD28 scFv signal in presence of CD28” value in assay [2] was found to be 0.116.

B11: Phage-321 clonal phage peptide (peptide)
peptide: MDWCPRDLWYVCFA
notes: on phage (pIII fusion)
Regarding B11, the “CD28 scFv signal” value in assay [1] came out at 2.22. In addition, in assay [2], the “CD28 scFv signal in presence of CD28” value was found to be 0.138.

B12: Phage-311 clonal phage peptide (peptide)
peptide: MDWCPRDLWYQCFN
notes: on phage (pIII fusion)
As to B12, in assay [1], the “CD28 scFv signal” value is 2.35. In assay [2], the “CD28 scFv signal in presence of CD28” value is 0.609.

B13: Phage-292 clonal phage peptide (peptide)
peptide: MDWCPRALWDHCFF
notes: on phage (pIII fusion)
Take B13: the “CD28 scFv signal” value in assay [1] worked out at 2.49. Further, the “CD28 scFv signal in presence of CD28” value in assay [2] amounted to 0.394.

B14: Phage-282 clonal phage peptide (peptide)
peptide: MDWCPRDLWFACFA
notes: on phage (pIII fusion)
Take B14: in assay [1], the “CD28 scFv signal” value was determined as 2.66. The “CD28 scFv signal in presence of CD28” value in assay [2] was 0.794.

B15: Phage-294 clonal phage peptide (peptide)
peptide: MDWCPRSLWDYCFA
notes: on phage (pIII fusion)
With B15, the “CD28 scFv signal” value in assay [1] was 2.49. For the same molecule, in assay [2], the “CD28 scFv signal in presence of CD28” value was 0.235.

B16: Phage-280 clonal phage peptide (peptide)
peptide: MDWCPRYLWDYCFA
notes: on phage (pIII fusion)
For B16, in assay [1], the “CD28 scFv signal” value was found to be 2.71. Also, in assay [2], the “CD28 scFv signal in presence of CD28” value came to 0.382.

B17: Phage-316 clonal phage peptide (peptide)
peptide: MDWCPRSLWNYCFA
notes: on phage (pIII fusion)
Regarding B17, the “CD28 scFv signal” value in assay [1] was 2.32. The “CD28 scFv signal in presence of CD28” value in assay [2] turned out to be 0.198.

B18: Phage-313 clonal phage peptide (peptide)
peptide: MDWCPRSLWNYCFN
notes: on phage (pIII fusion)
As to B18, in assay [1], the “CD28 scFv signal” value was 2.35. Besides, the “CD28 scFv signal in presence of CD28” value in assay [2] amounted to 0.209.

B19: Phage-307 clonal phage peptide (peptide)
peptide: MDWCPRYLWPVCFH
notes: on phage (pIII fusion)
In the case of B19, in assay [1], the “CD28 scFv signal” value was determined as 2.39. Besides, in assay [2], the “CD28 scFv signal in presence of CD28” value came to 0.602.

B20: Phage-279 clonal phage peptide (peptide)
peptide: MDWCPRYLWAECFN
notes: on phage (pIII fusion)
As to B20, the “CD28 scFv signal” value in assay [1] is 2.74. Further, the “CD28 scFv signal in presence of CD28” value in assay [2] was 1.14.

B21: Phage-299 clonal phage peptide (peptide)
peptide: MDWCPIYLWAECFN
notes: on phage (pIII fusion)
As for B21, the “CD28 scFv signal” value in assay [1] was found to be 2.45. In assay [2], the “CD28 scFv signal in presence of CD28” value amounted to 0.307.

B22: Phage-281 clonal phage peptide (peptide)
peptide: MDWCPRSLWFLCFN
notes: on phage (pIII fusion)
As to B22, the “CD28 scFv signal” value in assay [1] came to 2.71. Besides, in assay [2], the “CD28 scFv signal in presence of CD28” value worked out at 1.77.

B23: Phage-317 clonal phage peptide (peptide)
peptide: MDWCPRHLWHECFT
notes: on phage (pIII fusion)
On to B23, for which the “CD28 scFv signal” value in assay [1] is 2.3. Besides, the “CD28 scFv signal in presence of CD28” value in assay [2] is 0.32.

B24: Phage-423 (peptide)
peptide: INLCPTPMWNRCWL
notes: as for B7
As to B24, in assay [3], the “Phage binding ELISA CD28 scFv signal in presence of CD28” value came out at 0.101. Besides, the “Phage binding ELISA CD28 scFv signal” value in assay [4] was 0.103.

B25: Phage-427 (peptide)
peptide: VILCPTTMWNRCFH
notes: as for B7
On to B25, for which the “Phage binding ELISA CD28 scFv signal in presence of CD28” value in assay [3] stood at 0.084. The “Phage binding ELISA CD28 scFv signal” value in assay [4] worked out at 0.072.

B26: Phage-285 clonal phage peptide (peptide)
peptide: MDWCPRDLWAMCFA
notes: on phage (pIII fusion)
Take B26: the “CD28 scFv signal” value in assay [1] stood at 2.63. The “CD28 scFv signal in presence of CD28” value in assay [2] stood at 0.889.

B27: Phage-426 (peptide)
peptide: MFLCPSAMWNRCFY
notes: as for B7
With B27, in assay [3], the “Phage binding ELISA CD28 scFv signal in presence of CD28” value came to 0.114. Moreover, the “Phage binding ELISA CD28 scFv signal” value in assay [4] was found to be 0.094.

B28: Phage-274 clonal phage peptide (peptide)
peptide: WVSCLRHHWLECFH
notes: on phage (pIII fusion)
Consider B28, for which, in assay [1], the “CD28 scFv signal” value is 0.723. Besides, the “CD28 scFv signal in presence of CD28” value in assay [2] stood at 0.858.

B29: Phage-277 clonal phage peptide (peptide)
peptide: MDWCPRSHWSECFS
notes: on phage (pIII fusion)
For the molecule B29, in assay [1], the “CD28 scFv signal” value was 0.253. The “CD28 scFv signal in presence of CD28” value in assay [2] was determined as 0.087.

B30: Phage-308 clonal phage peptide (peptide)
peptide: MDWCPKSLWAECFN
notes: on phage (pIII fusion)
For B30, the “CD28 scFv signal” value in assay [1] stood at 2.38. For the same molecule, the “CD28 scFv signal in presence of CD28” value in assay [2] was 0.162.

B31: Phage-286 clonal phage peptide (peptide)
peptide: MERCPRYLWHMCYS
notes: on phage (pIII fusion)
Turning to B31, the “CD28 scFv signal” value in assay [1] was found to be 2.59. Further, in assay [2], the “CD28 scFv signal in presence of CD28” value came to 0.84.

B32: Phage-319 clonal phage peptide (peptide)
peptide: MSWCPRDLWHLCFF
notes: on phage (pIII fusion)
As for B32, in assay [1], the “CD28 scFv signal” value worked out at 2.27. Besides, the “CD28 scFv signal in presence of CD28” value in assay [2] was 0.319.

B33: Phage-272 clonal phage peptide (peptide)
peptide: MVWCMSVGWAVCLN
notes: on phage (pIII fusion)
B33: the “CD28 scFv signal” value in assay [1] was 0.271. In assay [2], the “CD28 scFv signal in presence of CD28” value came to 0.284.

B34: Phage-315 clonal phage peptide (peptide)
peptide: MDWCPTYLWHVCFS
notes: on phage (pIII fusion)
On to B34, for which, in assay [1], the “CD28 scFv signal” value is 2.32. In addition, the “CD28 scFv signal in presence of CD28” value in assay [2] turned out to be 0.16.

B35: Phage-430 (peptide)
peptide: IHLCHWVPWIKCSH
notes: as for B7
B35: the “Phage binding ELISA CD28 scFv signal in presence of CD28” value in assay [3] was found to be 2.51.

Source of the values: patent US20230357447A1 (JANUX THERAPEUTICS, published 2023).
